The target in the test is T1, ACE2-Fc (human, UniProt Q9BYF1).
T1 construct: also called recombinant human ACE2; angiotensin converting enzyme-2; source: bought: GenScript
Description: ELISA; ACE2-Fc (4 ug/mL) captured on goat anti-human IgG Fc coated plates; biotin-labeled S481 peptide in two-fold dilutions 2000-3.90 ng/mL in 1% BSA/0.05% PBST, 1 hour at room temperature; detected with HRP-streptavidin and TMB, absorbance at 450 nm. Particulars: both partners purified. On the technique in general: ELISA stands for enzyme-linked immunosorbent assay.

Where no end group is shown, it is not given here.

T1 sequence (Q9BYF1 18-740): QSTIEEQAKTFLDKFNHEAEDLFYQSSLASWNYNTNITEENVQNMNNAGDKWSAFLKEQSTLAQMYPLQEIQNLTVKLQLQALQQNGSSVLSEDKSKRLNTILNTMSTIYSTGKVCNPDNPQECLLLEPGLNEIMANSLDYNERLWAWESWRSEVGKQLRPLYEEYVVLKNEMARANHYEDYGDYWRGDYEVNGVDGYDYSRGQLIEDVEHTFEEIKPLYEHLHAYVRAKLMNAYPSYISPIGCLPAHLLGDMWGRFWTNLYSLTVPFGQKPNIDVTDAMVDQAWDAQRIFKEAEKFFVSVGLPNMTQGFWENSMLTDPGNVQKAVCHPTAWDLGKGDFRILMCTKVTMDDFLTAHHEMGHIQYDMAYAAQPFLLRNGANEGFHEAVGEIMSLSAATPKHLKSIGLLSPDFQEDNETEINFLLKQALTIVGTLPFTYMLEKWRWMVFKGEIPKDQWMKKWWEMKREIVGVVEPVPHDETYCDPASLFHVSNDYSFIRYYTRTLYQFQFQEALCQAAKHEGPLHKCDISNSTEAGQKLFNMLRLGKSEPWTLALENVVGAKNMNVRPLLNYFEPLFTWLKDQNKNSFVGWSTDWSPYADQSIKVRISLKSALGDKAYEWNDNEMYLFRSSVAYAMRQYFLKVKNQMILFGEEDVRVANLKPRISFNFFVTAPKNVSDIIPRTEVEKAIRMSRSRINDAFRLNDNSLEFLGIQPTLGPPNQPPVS

With NGVEGFNCYFPLQSY (also: biotin label, position not given here, also called S481 peptide) [S481-495 peptide], the binding result is on record as “binds”.

The record behind these values is publication PMC9297724, “SARS-CoV-2 Epitopes following Infection and Vaccination Overlap Known Neutralizing Antibody Sites” (Research, 2022).
